For this assay, the target named is T1, FtsA (E. coli, UniProt P0ABH0 1-420).
T1 sequence (looked up): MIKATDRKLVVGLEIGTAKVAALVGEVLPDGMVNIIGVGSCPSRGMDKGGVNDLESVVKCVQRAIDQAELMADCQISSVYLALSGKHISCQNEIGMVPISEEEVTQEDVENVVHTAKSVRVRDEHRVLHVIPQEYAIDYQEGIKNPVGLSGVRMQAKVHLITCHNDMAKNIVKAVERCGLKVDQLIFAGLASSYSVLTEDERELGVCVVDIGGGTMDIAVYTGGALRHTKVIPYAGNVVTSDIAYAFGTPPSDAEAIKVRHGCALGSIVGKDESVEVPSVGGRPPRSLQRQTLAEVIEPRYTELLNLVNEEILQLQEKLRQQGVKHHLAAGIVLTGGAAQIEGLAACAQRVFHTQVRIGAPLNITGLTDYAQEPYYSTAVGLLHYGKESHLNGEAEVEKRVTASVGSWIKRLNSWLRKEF
The experiment in a line: TIRF microscopy of FtsZ membrane recruitment on supported lipid bilayers.

* marks the point of attachment. 6xHis = N-terminal hexahistidine tag, N[C@@H](Cc1c[nH]cn1)C(=O)N[C@@H](Cc1c[nH]cn1)C(=O)N[C@@H](Cc1c[nH]cn1)C(=O)N[C@@H](Cc1c[nH]cn1)C(=O)N[C@@H](Cc1c[nH]cn1)C(=O)N[C@@H](Cc1c[nH]cn1)C(=O)*

B1: Alexa Fluor 488-labeled FtsZ (natural protein, E. coli, UniProt P0A9A6 1-383, looked up)
chain: MFEPMELTNDAVIKVIGVGGGGGNAVEHMVRERIEGVEFFAVNTDAQALRKTAVGQTIQIGSGITKGLGAGANPEVGRNAADEDRDALRAALEGADMVFIAAGMGGGTGTGAAPVVAEVAKDLGILTVAVVTKPFNFEGKKRMAFAEQGITELSKHVDSLITIPNDKLLKVLGRGISLLDAFGAANDVLKGAVQGIAELITRPGLMNVDFADVRTVMSEMGYAMMGSGVASGEDRAEEAAEMAISSPLLEDIDLSGARGVLVNITAGFDLRLDEFETVGNTIRAFASDNATVVIGTSLDPDMNDELRVTVVATGIGMDKRPEITLVTNKQVQQPVMDRYQQHGMAPLTQEQKPVAKVVNDNAPQTAKEPDYLDIPAFLRKQAD
modifications: Alexa Fluor 488 label (site not stated)
On to B1, for which the binding result is listed as “binds”.

B2: ^N-pepPBP1b (residues 1-64) peptide, N-terminal 6x-His tag, C-terminal cysteine, labelled with cyanine 5 (peptide)
peptide: 6xHis-MAGNDREPIGRKGKPTRPVKQKVSRRRYEDDDDYDDYDDYEDEEPMPRKGKGKGKGRKPRGKRGC(sulfo‑cyanine5‑maleimide)
Regarding B2, the binding result is “binds”.
